Experimental data reported in the supplement of paper PMC9170038.

These sequences were tested on K4 kissing-loop RNA reporter (assay: apparent KD of K4 kissing-loop reporter; higher = weaker reporter binding). Conditions: Eterna round: R107; input ligand: arginine 13.2 mM.
Description: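 RNA-MaP round R107: designed RNA switches with theophylline, tryptophan, arginine or FMN aptamers are transcribed on-chip within common flanks. They are titrated with a labelled K4 kissing-loop RNA reporter in RNA-MaP buffer (100 mM Tris pH 7.5, 80 mM KCl, 4 mM MgCl2), without ligand or with the indicated ligand. Median apparent KD per design.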
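Further: bound reporter read as fluorescence of individual clusters on recovered sequencing chips by microscopy, with normalized cluster intensities fitted with a binding model.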

Sequence	apparent KD of K4 kissing-loop reporter [nM]
GCCGUAGAUUGAAGGAGCGAGGCUACUUAAAGACCGAGUGAUGUUCGGGAACGUGAAACUCCUCAGGUAGGUCGCAAUCUACGGC	235
UGUACAUGUCAGCGAGUGAUGUUCGACGAUACCAGACUCGAUAGAGUCCCUUGGCAGCGUAACGCAUGCCAAACUGGCAUGUACU [#SwitchBubble 9 #K4Early]	819
GACAUACCUAUGGAGGGCCGAUCGAUCAUACGAGGACCGGUACGGCCGCCACUCGUGGGCAGUGAUGUUGACCCUGGGAGGUAAG	223
UGAUAGGACAGAAGGAGCGGAAGCUAGUCAAAGACUAGCACGUUAAUAACAGGAGUGAUGUUCCAGGUAGGUCGCUGUCCUAUCU [ArgBX 24 #SwitchBubble #StaticStem]	118
ACCAUCAAAGAUGGCCAGGACUCCGCUGAUACCAGAGUGAAAACACUCCCUUGGCAGCAGGUGAGUGAUGUUCACGAGUCCUGGA [Omel KL Theo A SS B v6]	330
UGGACCUGACUCGAUAAGAGUCAAUGAGAUACCAGUGACGAAAGUCACCCUUGGCAGCUCACUGCCAGUGAUGUUGGUAGGUCCU [#SwitchBubble 3 #StaticStem]	919
GCGCGGGAGUGAUGUUCCAAGUGGUGUUAGCGAGGACCGGUACGGCCGCCACUCGUUACGGCCGGGCCGUAGGAUACACUGGCGC [Same State - Tryptophan A (Freestyle 17)]	218
CAUACGCAUGGAGGAUAUGAGAUUACUCAUAUCAUUUAAUAUUCUCAGUGAUGUUGAGAUUUGGGCUCAGAAGGCCAUGUGUAUG [Ex FMN B 15]	304
UGAUAGGACAGAAGGAGCGGAAGUGAUGUUUCCAAAAGGUAAGGUCGACAAAGUCGACCCUUCCAGGUAGGUCGCUGUCCUAUCU [ArgBX 11 #Palindromic #SwitchBubble #StaticStem]	102
AUAAACUUGCAGUGAUGUUGCAAGUGAGACUAGGAUAUCAGGAAGCUGAGAAGGAGUCAUCUCCUUCAAACAUCACUAUGAAGGA [whbob_SS_FMNA__2th178]	287
AAAGGAGUGGAAGGAUAUCCUGGUGUGGGUGGUGUUAGUGAUGUUGGUGGUGCAGUGAUGUUGCGCGGAGAAGGUCCGGUAUUGG [BDazzled - #2 - Exc. FMN B]	462
UGGAGUUGACGAAAAGUCAACUCCCGAGAAGGAGCGGACGAAAGUCCAGGUAGGUCGCUCGCUACCAGUGAUGUUGGUACUGAAA	180
AACGGCCAGUCGGCCGCCACUCGAUGCAGUGAUGUUGCUAACUUUCUAAAAGAGUGAUGUUCAUGGAGGACCGGGACUAGUGUAA [#30 K4 Tryptophan B Exclusion]	244
UAAUAUAAUCUGUCGUUUACAAUAUUUAGUCAGGAUAUCGUAUAUUCGAGAAGGGACACUAUCUAGUGAUGUUAGAUAUUUCGUU [JR_ExcFMNA_Sub015]	81.4
GCUCGUCAUGUCAGCGGUGGUACUGUCGAUACCAGUGCCGUAAGGCGCCCUUGGCAGCGAUGCGCUGGAGUGAUGUUCCAGCGUU [#2 Exclusion - Theophylline A Attempt #32 (HarryS)]	92.9
UGUGUUGUUGUGAUGUUUGGUGUUGCAGGGCAGGAUAUCGUAGAGGCGAGAAGGGCUUUUGUGCGGUAUGAGUGAUGUUUGUAGG [rrcgsmullin]	218

Sequence	apparent KD of K4 kissing-loop reporter [nM]
ACACUAUCGUCAUAGACGGUAGUGAACACACAGGAUAUGAGUGAUGUUAGAAGGGUGUAAGACUGUAUCGAAUAGAUACAGUCAA [FmnA 7 #K4BetweenAptamer #OpenEnded]	142
AAACGUUGGUCUGAUACCAGCUGAUCGGAAACGAUCUUGCUGGAGUGAUGUUCCAGGAAAAGCCCUUGGCAGCAGACCGACGAAA [MAT - Same State Theophlline B - Mod of Eli - D25]	714
CAACCCUGCUUUUUCGAGUUUUAGGGAUGACGAGGACCGGUACGGCCGCCACUCGACUACACUGUUCAGUGAUGUUGAACGGCGG [Teveza]	60
UAUGAAUGUGGAGGAUAUUGAUUGAAUCUUGGUCUGGAGUGAUGUUCCGGGAAGCCUUGGAUUCAUCGAGAAGGCCAUGGAUAGU [#03 K4 FMN B Same State]	111
GUUCGGAUGCGGGAUACCAGCGUACCGAGCAAGCUUCGGGUAGUGAUGUUAUCUGAAUUACGCCCUUGGCAGCCCGCAUCCGGGC [clock_plus]	234
AGUACAAUGGCGGCCGCCACUCAACAGCAGAUCAAAGAUCUGCUUCACUCAGUGAUGUUGAGUGAGAGGACCGGGCCUUUGUACA [Omei KL Tryp B SS B v4]	614
UGACAUUGCUCAGAUACCAGACAAGAGGAUCACCCUUGUGCCAACGUACAAAUAAUAAAUGUCCCUUGGCAGCUGAGCAAUGUCU [TheoBX 15]	31.9
GUCCAACCUGGAGGAUAUCUGCUGUCCAGUGAUGUUGGACACUUUAGUAAAGGCCGGGUAGCCCGCAGAGAAGGCCGGAGUUGCC [Arceer]	328
UAGUAGCUCUCGGCCGCCACUCCUCAGUGAUGUUGAGAUAUUAAGAGCCAAUUGGCUCAUAUAAAGAGGACCGGGAGAGCUACAU [AK4.2 SS Tryptophan B]	339
UGAUAGGACAGAAGGAGCGGCAGUGAUGUUGCCAAAAGGGUAAGGUGUCAAAAGACACCCUGCCAGGUAGGUCGCUGUCCUAUCU	173
GGGAGUAGUGCGGCCGCCACUGAGAAAGAAGAAGAAUAUAGUGAUGUUAUGUAGGAAAGGAAGAACAGGACCGGGCAUUAGAUUU [SSTRyptB.G]	432
UGAUAGGACAGAAGGAGCGAGGAGUGAUGUUCCUCAAAAGGUCUAGCAAAGCUAGACCCUCCUCAGGUAGGUCGCUGUCCUAUCU [ArgBX 1 #Palindromic #SwitchBubble #StaticStem]	162
GCCGUAGAUGGAAGGAGCGUGUCAAAGUGAUGUUUUGAUUAACUCCCUAAGGGAUAGAUGACACAGGUAGGUCGCCAUCUACGGC	63.5
GGUUUAUAGGAGGAUACCAGUACGGAUAAAGUACGUUAAUAGUAGAGUGAUGUUCUAAAGUACCCUUGGCAGCUUAGAUUAAGUU [ExTheophylB.J]	142
AUUUAGACGAGUGAUGUUCGUGUUAUUACAGAGGAUAUGCGUAAUUGCAGAAGGCUGUAUUUAUAUAUGUUAUGUGGUUUUAAAA [whbob_Ex_FMNA__2th185]	98
AAACAUUGGUCUGAUACCAGCUGAUCGGAAACGAUCAUGCUGGAGUGAUGUUCCAGGAAAAGCCCUUGGCAGCAGACCGAUGAAA [MAT - Same State Theophlline B - Mod of Eli - D28]	103

Same assay, conditions: Eterna round: R107; input ligand: none

Sequence	apparent KD of K4 kissing-loop reporter [nM]
AGUGCACUGUCAGGAUAUAUACAGUGAUGUUGUGUAUGUCAGCAAGUCAAAGACUUGCUCUUCUGUGUAGAAGGGACUGUGUACA [Omei KL FMN B Exc A v4]	133
AAGUCUCGUUAAUUCGAGGUUACGAUCGAUACCAGUAGCGAGAGGUACCCUUGGCAGCGAAGUGAGUGAUGUUCAUGAAAGAAGA [KL-XTheoA12]	92.7
AGUGAUGUAGUGUGUUGUUUGUGAAGUGAUCGAGGACCGGUACGGCCGCCACUCGAGUGAUGAGUGAGUGAUGUUUGUUUAGUGG [#18 K4 Tryptophan A Same State]	376
CGCGCCCAGCCGGAUACCAGUGACCCGCUGGGAACCGCGGGCCCAGAGUGAUGUUCGGGACACCCUUGGCAGCCGCCUGGGCGGC [#2 Same State - Theophylline B Attempt #9 (HarryS)]	999
UAAUCCUAGUGAUAAUUAUCAAGUGGUGGGCGAGGACCGGUACGGCCGCCACUCGAAUAUGCAGUGAUGUUGUAAUCCGGAUAAU [Exclusion - Tryptophan A (Freestyle 7)]	534
GGAGUUACCUGGGAUACCAGCCGGAGGCCCAGAGCUCGGAGUGAUGUUCUGGGAUGUUUCGGCCCUUGGCAGCUCUGGGUCUCCG [#2 Exclusion - Theophylline B Attempt #5 (HarryS)]	806
AGGUUUUACGGAGGAUAUGCACUGAGGAGGAGAAUAUAGUGAUGUUAUAUAAGAGGAAGGAGAAGAGUAGAAGGCCGUGAGGUUU [SSFMNB.M]	149
AUAAUAUGAGUGAUGUUCAUGUAAGCUGAAGGAGCGGACGAAAGUCCAGGUAGGUCGCAGCGUUCCUUUACCUCAUGAGAAGGAG [KL_SSArg-A1 #analogue]	203
UCCUGCAAUCGGCCACGAAAGUGGAUUGAUACCAGAGUCGAAAGACUCCCUUGGCAGCGAGUGAUGUUCGAAGCAGGUAAAUAAA	502
AGCGAUGUUUUCUCUAAGAGUGAUGUUUUUCGAGGACCGGUACGGCCGCCACUCGAAUAAAGUGUGCGGUAGUGAGCUGUUGACA [#18 K4 Tryptophan A Exclusion]	747
GCCGUAGAUUGAAGGAGCGAGGCUACUUAAAGACCGAGUGAUGUUCGGGAACGUGAAACUCCUCAGGUAGGUCGCAAUCUACGGC	280
UGUACAUGUCAGCGAGUGAUGUUCGACGAUACCAGACUCGAUAGAGUCCCUUGGCAGCGUAACGCAUGCCAAACUGGCAUGUACU [#SwitchBubble 9 #K4Early]	1120
GACAUACCUAUGGAGGGCCGAUCGAUCAUACGAGGACCGGUACGGCCGCCACUCGUGGGCAGUGAUGUUGACCCUGGGAGGUAAG	252
UGAUAGGACAGAAGGAGCGGAAGCUAGUCAAAGACUAGCACGUUAAUAACAGGAGUGAUGUUCCAGGUAGGUCGCUGUCCUAUCU [ArgBX 24 #SwitchBubble #StaticStem]	136
ACCAUCAAAGAUGGCCAGGACUCCGCUGAUACCAGAGUGAAAACACUCCCUUGGCAGCAGGUGAGUGAUGUUCACGAGUCCUGGA [Omel KL Theo A SS B v6]	476
UGGACCUGACUCGAUAAGAGUCAAUGAGAUACCAGUGACGAAAGUCACCCUUGGCAGCUCACUGCCAGUGAUGUUGGUAGGUCCU [#SwitchBubble 3 #StaticStem]	1300
GCGCGGGAGUGAUGUUCCAAGUGGUGUUAGCGAGGACCGGUACGGCCGCCACUCGUUACGGCCGGGCCGUAGGAUACACUGGCGC [Same State - Tryptophan A (Freestyle 17)]	286
CAUACGCAUGGAGGAUAUGAGAUUACUCAUAUCAUUUAAUAUUCUCAGUGAUGUUGAGAUUUGGGCUCAGAAGGCCAUGUGUAUG [Ex FMN B 15]	339
UGAUAGGACAGAAGGAGCGGAAGUGAUGUUUCCAAAAGGUAAGGUCGACAAAGUCGACCCUUCCAGGUAGGUCGCUGUCCUAUCU [ArgBX 11 #Palindromic #SwitchBubble #StaticStem]	92.8
AUAAACUUGCAGUGAUGUUGCAAGUGAGACUAGGAUAUCAGGAAGCUGAGAAGGAGUCAUCUCCUUCAAACAUCACUAUGAAGGA [whbob_SS_FMNA__2th178]	336
AAAGGAGUGGAAGGAUAUCCUGGUGUGGGUGGUGUUAGUGAUGUUGGUGGUGCAGUGAUGUUGCGCGGAGAAGGUCCGGUAUUGG [BDazzled - #2 - Exc. FMN B]	437
